In experiment [1] the target is HCN channels (mediating Ih) in CA1 pyramidal neurons of TRIP8b KO mice. Kind of experiment: cell-based or functional assay.
Experiment [2] deals with HCN1, hyperpolarization-activated cyclic nucleotide-gated channel pore-forming subunit 1, endogenous in CA1 pyramidal neurons of TRIP8b KO mice (mouse) (UniProt O88704). Put plainly: cell-based or functional assay.
Sequence of UniProt O88704 (O88704 whole entry): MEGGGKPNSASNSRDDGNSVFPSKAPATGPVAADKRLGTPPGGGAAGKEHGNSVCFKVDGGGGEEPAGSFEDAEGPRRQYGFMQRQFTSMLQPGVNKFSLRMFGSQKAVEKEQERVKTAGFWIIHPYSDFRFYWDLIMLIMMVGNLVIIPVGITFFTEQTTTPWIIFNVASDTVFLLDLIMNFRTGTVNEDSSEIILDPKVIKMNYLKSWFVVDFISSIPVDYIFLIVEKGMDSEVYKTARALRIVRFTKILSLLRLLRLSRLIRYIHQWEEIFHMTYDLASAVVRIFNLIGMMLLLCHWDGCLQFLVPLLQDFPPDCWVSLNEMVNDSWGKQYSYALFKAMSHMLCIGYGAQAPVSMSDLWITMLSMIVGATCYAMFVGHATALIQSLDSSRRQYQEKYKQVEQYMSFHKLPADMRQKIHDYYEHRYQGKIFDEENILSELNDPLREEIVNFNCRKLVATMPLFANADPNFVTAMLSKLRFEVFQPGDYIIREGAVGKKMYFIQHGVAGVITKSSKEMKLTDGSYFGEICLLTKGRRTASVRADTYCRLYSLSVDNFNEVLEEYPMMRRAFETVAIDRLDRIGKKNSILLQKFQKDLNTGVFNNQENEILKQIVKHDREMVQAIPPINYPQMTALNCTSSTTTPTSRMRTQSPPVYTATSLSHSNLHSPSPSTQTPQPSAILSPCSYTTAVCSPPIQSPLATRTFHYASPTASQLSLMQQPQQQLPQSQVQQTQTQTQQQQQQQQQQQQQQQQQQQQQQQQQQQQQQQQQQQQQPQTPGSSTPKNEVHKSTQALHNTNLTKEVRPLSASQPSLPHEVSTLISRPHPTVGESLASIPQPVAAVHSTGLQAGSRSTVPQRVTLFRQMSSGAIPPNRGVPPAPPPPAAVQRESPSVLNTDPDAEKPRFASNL

As for “TRIP8b(1a-4)(TPR3-N13A), expressed from AAV-TRIP8b(N13A)”, in experiment [1], the Ih amplitude, voltage clamp, TRIP8b KO mice came to 0.282 pA/pF and the sag ratio, somatic whole cell recordings, TRIP8b KO mice stood at 1.11. Moreover, in experiment [2], the HCN1 staining in the SLM layer of CA1, injected hemisphere scaled by contralateral hemisphere (immunohistochemistry) (fold of uninjected hemisphere) is 0.78.
“TRIP8b(1a-4)(Δ58), expressed from AAV-TRIP8b(Δ58)”: in experiment [1], the Ih amplitude, voltage clamp, TRIP8b KO mice was 0.27 pA/pF and the sag ratio, somatic whole cell recordings, TRIP8b KO mice worked out at 1.09. Further, the HCN1 staining in the SLM layer of CA1, injected hemisphere scaled by contralateral hemisphere (immunohistochemistry) (fold of uninjected hemisphere) in experiment [2] was 0.98.
As to “TRIP8b(1a-4), tetratricopeptide repeat-containing Rab8b interacting protein, isoform comprised of exons 1a, 4 and 5-16, wild type, expressed from AAV-TRIP8b-IRES-eGFP”, in experiment [1], the Ih amplitude, somatic voltage clamp recordings, TRIP8b KO mice is 0.68 pA/pF and the sag ratio (ΔVmax/ΔVsteady-state), whole cell recordings from eGFP positive CA1 pyramidal neurons of TRIP8b KO mice came out at 1.27. The same substance displayed an HCN1 staining in the SLM of CA1, injected hemisphere relative to uninjected hemisphere (immunohistochemistry) (fold of uninjected hemisphere) in experiment [2] of 1.52.
In the case of “TRIP8b(Δ58/N13A) double mutant, expressed from AAV-TRIP8b(Δ58/N13A)”, the HCN1 staining in the SLM layer of CA1, injected hemisphere scaled by contralateral hemisphere (immunohistochemistry) (fold of uninjected hemisphere) in experiment [2] is 0.99.

(Values after patent publication US20190038707A1.)
